According to publication PMC7440162 (Cell, 2020):

Experiments:
Assay in all cases: SPR
ICAM5 ECD-Fc = molecular target: T1, ICAM5 ECD-Fc (human, UniProt Q9UMF0 32-835, biotin on the AviTag (as SPR ligand))
T1 sequence: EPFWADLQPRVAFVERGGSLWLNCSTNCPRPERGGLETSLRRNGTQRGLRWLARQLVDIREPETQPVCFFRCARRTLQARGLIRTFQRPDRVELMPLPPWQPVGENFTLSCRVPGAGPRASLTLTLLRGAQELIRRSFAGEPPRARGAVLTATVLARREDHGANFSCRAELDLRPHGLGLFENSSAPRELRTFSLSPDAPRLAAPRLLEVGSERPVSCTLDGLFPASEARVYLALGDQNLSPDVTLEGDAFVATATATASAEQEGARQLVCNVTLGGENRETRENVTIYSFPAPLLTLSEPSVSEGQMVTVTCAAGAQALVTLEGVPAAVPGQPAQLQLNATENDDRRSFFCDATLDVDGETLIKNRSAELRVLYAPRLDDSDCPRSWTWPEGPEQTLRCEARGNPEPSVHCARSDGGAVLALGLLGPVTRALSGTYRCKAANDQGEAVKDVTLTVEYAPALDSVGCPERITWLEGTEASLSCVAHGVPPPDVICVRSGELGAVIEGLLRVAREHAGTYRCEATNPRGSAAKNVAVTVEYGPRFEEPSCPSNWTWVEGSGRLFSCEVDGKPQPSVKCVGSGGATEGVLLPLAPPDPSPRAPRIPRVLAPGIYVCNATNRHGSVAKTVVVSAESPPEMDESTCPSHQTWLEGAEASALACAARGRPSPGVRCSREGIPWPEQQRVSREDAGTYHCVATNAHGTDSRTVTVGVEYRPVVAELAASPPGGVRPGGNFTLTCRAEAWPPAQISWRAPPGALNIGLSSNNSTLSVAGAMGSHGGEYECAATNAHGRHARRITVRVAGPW

LTF-Fc = LTF-Fc (human, UniProt P02788, biotin on the AviTag (as SPR ligand))
human ISLR2 ECD-Fc = molecular target: T2, human ISLR2 ECD-Fc (human, UniProt Q6UXK2 19-589, biotin on the AviTag (as SPR ligand))
T2 sequence: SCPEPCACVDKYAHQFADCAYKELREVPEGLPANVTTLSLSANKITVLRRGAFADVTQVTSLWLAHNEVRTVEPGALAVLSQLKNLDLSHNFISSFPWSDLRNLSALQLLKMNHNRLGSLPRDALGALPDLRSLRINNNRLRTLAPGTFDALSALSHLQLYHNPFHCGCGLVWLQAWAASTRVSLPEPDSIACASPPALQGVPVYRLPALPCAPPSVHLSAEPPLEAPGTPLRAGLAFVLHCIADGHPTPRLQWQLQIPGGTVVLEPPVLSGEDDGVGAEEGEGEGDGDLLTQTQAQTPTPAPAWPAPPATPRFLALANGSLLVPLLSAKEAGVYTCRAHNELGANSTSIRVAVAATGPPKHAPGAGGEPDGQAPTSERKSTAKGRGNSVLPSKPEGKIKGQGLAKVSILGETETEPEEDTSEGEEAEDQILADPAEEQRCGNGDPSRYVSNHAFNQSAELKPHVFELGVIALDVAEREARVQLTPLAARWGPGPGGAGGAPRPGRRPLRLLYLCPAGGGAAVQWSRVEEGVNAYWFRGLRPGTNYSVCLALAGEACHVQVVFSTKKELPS

WFIKKN2-Fc = molecular target: T3, WFIKKN2-Fc (human, UniProt Q8TEU8 35-576, biotin on the AviTag (as SPR ligand))
T3 sequence: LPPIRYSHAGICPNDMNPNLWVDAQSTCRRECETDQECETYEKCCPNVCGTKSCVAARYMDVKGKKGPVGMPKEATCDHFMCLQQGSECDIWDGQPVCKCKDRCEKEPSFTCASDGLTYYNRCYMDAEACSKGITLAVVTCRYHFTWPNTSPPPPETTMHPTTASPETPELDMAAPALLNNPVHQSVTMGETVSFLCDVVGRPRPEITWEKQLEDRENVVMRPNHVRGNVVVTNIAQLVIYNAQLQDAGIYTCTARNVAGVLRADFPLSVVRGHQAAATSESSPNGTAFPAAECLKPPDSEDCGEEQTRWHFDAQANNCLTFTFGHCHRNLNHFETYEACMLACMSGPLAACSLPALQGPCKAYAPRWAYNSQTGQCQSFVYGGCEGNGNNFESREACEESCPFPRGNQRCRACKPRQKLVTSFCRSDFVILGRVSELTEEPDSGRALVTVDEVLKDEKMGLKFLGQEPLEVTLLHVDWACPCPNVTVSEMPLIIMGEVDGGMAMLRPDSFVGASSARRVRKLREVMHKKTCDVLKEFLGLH

mouse Lepr ECD-Fc = molecular target: T4, mouse Lepr ECD-Fc (mouse, UniProt P48356 22-839, biotin on the AviTag (as SPR ligand))
T4 sequence: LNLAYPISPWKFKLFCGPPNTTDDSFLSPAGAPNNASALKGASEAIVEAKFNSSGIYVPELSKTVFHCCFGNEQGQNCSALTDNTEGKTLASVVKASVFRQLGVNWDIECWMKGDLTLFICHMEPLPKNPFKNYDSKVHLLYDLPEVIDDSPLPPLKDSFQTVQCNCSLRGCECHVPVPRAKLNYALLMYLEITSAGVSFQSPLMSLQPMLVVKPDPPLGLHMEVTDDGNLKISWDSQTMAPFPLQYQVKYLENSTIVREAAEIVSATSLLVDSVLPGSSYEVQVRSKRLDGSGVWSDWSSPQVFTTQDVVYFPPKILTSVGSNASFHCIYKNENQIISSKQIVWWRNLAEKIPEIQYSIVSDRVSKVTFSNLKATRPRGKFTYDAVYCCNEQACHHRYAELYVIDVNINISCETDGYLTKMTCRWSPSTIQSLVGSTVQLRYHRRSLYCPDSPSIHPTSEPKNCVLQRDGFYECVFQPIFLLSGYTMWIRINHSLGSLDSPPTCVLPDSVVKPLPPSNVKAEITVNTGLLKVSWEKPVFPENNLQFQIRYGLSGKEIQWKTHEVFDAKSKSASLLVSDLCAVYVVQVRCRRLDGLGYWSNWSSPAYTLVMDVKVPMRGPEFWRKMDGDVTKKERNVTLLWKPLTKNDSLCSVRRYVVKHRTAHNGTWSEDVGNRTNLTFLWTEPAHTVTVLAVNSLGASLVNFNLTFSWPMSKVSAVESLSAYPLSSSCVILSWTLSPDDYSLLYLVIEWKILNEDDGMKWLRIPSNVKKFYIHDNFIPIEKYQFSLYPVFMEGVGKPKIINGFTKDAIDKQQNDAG

mouse Islr2 ECD-Fc = molecular target: T5, mouse Islr2 ECD-Fc (mouse, UniProt Q5RKR3 20-589, biotin on the AviTag (as SPR ligand))
T5 sequence: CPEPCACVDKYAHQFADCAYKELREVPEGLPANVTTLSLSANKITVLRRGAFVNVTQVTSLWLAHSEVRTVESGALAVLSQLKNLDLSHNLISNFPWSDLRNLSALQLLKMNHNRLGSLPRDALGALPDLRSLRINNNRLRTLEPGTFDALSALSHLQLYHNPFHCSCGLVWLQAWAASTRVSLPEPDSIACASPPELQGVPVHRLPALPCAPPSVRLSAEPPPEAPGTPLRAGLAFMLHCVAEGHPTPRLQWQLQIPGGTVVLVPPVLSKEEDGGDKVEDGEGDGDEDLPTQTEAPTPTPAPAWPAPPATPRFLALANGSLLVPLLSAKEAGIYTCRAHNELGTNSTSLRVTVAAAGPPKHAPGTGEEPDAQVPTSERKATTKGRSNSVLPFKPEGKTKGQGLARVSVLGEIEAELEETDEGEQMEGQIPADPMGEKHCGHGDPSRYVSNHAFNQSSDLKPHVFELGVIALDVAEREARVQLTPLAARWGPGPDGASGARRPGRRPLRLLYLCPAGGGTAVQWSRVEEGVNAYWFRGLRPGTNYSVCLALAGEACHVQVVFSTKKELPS

FGFR3 ECD-Fc = molecular target: T6, FGFR3 ECD-Fc (human, UniProt P22607 23-375)
T6 sequence: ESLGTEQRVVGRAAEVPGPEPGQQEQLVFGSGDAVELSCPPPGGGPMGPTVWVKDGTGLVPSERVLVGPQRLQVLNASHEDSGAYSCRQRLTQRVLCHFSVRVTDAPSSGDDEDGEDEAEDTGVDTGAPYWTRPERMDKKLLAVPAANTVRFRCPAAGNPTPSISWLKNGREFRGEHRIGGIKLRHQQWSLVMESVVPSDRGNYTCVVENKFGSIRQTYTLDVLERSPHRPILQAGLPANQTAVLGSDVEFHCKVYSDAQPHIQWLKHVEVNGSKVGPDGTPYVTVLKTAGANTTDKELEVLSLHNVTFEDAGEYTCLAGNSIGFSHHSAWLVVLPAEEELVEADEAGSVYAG

PTPRS ECD-Fc = molecular target: T7, PTPRS ECD-Fc (human, UniProt Q13332 30-1282)
T7 sequence: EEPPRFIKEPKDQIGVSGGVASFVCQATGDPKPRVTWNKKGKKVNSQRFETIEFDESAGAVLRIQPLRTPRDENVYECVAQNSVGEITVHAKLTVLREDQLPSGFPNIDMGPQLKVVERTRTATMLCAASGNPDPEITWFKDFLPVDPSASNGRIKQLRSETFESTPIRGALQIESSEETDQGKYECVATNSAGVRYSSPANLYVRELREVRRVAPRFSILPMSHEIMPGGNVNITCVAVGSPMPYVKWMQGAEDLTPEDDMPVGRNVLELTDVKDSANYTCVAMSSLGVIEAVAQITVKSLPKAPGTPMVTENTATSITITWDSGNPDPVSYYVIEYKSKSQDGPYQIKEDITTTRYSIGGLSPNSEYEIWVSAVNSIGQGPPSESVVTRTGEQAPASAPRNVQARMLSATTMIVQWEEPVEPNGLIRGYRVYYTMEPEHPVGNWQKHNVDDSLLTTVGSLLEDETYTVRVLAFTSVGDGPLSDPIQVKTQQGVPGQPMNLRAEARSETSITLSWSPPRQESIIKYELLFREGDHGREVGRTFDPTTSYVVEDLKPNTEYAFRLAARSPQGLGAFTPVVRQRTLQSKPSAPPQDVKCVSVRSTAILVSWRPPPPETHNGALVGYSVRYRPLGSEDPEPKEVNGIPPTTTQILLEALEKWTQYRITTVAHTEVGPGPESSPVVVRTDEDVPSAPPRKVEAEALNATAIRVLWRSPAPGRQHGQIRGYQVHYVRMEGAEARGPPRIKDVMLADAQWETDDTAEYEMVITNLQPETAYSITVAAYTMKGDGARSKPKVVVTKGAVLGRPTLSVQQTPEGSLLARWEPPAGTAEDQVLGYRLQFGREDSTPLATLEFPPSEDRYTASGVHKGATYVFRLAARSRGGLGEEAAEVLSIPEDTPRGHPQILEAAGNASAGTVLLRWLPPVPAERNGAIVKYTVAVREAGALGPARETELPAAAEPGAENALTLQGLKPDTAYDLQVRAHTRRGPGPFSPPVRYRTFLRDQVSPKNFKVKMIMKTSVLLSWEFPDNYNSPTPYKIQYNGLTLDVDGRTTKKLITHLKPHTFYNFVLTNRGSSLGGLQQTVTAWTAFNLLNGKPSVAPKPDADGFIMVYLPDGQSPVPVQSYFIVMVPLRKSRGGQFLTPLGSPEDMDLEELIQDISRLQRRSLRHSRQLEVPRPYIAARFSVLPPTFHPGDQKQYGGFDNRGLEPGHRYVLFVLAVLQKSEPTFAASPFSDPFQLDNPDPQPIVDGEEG

Measured: binding result

Chain of LTF-Fc (P02788 20-710): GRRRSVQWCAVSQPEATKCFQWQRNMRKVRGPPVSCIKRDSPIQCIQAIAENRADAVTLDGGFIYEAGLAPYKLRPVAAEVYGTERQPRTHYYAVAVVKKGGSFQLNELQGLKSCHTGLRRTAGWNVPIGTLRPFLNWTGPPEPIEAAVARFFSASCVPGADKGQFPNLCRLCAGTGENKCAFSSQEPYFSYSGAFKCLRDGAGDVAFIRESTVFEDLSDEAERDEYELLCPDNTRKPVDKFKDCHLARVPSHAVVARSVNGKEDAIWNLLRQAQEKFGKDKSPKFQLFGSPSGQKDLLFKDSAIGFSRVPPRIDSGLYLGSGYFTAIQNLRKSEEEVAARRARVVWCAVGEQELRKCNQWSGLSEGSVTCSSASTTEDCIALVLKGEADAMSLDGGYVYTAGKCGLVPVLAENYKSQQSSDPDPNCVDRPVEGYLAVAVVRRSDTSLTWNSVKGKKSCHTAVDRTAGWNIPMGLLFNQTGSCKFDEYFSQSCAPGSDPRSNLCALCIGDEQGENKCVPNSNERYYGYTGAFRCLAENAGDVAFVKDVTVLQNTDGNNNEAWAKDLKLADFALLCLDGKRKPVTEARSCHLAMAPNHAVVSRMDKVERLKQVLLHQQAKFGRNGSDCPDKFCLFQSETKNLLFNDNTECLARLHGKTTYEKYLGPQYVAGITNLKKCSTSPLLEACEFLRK

B1: IL-6Rα ECD-Fc (Fc fusion)
chain: LAPRRCPAQEVARGVLTSLPGDSVTLTCPGVEPEDNATVHWVLRKPAAGSHPSRWAGMGRRLLLRSVQLHDSGNYSCYRAGRPAGTVHLLVDVPPEEPQLSCFRKSPLSNVVCEWGPRSTPSLTTKAVLLVRKFQNSPAEDFQEPCQYSQESQKFSCQLAVPEGDSSFYIVSMCVASSVGSKFSKTQTFQGCGILQPDPPANITVTAVARNPRWLSVTWQDPHSWNSSFYRLRFELRYRAERSKTFTTWMVKDLQHHCVIHDAWSGLRHVVQLRAQEEFGQGEWSEWSPEAMGTPWTESRSPPAENEVSTPMQALTTNKDDDNILFRDSANATSLPVQDSSSVPLP
modifications: biotin on the AviTag (as SPR ligand)
binds: ICAM5 ECD-Fc | LTF-Fc | human ISLR2 ECD-Fc | WFIKKN2-Fc

B2: Recombinant Mouse Leptin Protein (monomer) (ligand)
chain: VPIQKVQDDTKTLIKTIVTRINDISHTQSVSAKQRVTGLDFIPGLHPILSLSKMDQTLAVYQQVLTSLPSQNVLQIANDLENLRDLLHLLAFSKSCSLPQTSGLQKPESLDGVLEASLYSTEVVALSRLQGSLQDILQQLDVSPEC
binds: mouse Lepr ECD-Fc | mouse Islr2 ECD-Fc | human ISLR2 ECD-Fc

B3: IL1RAPL2 ECD-Fc (Fc fusion)
chain: TNLKMVSKRNSVDGCIDWSVDLKTYMALAGEPVRVKCALFYSYIRTNYSTAQSTGLRLMWYKNKGDLEEPIIFSEVRMSKEEDSIWFHSAEAQDSGFYTCVLRNSTYCMKVSMSLTVAENESGLCYNSRIRYLEKSEVTKRKEISCPDMDDFKKSDQEPDVVWYKECKPKMWRSIIIQKGNALLIQEVQEEDGGNYTCELKYEGKLVRRTTELKVTALLTDKPPKPLFPMENQPSVIDVQLGKPLNIPCKAFFGFSGESGPMIYWMKGEKFIEELAGHIREGEIRLLKEHLGEKEVELALIFDSVVEADLANYTCHVENRNGRKHASVLLRKKDLIYK
modifications: biotin on the AviTag (as SPR ligand)
binds: FGFR3 ECD-Fc | PTPRS ECD-Fc
